According to paper PMC3347801:

Molecular target: human CD81 large extracellular loop fused to glutathione S-transferase (UniProt P60033)
Assay: CD81 binding assay (immobilized GST-CD81 LEL capture of E1E2 from cell lysate, detection with anti-E2 serum R646)
Conditions: lysate concentration normalized for reactivity with AP33 and ALP98 mAbs in a GNA ELISA; mock signal subtracted; triplicate; parent: est. 100; read off a plot

Chain of UniProt P60033 (P60033 113-201): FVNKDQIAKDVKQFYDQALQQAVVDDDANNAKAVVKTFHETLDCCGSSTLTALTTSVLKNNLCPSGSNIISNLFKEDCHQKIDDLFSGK

Q: For “HCV envelope glycoprotein E1, wild type (genotype 1a strain H77c) (from UniProt P27958) in218 (VFKHD inserted after D218)”, which percent of parent is on record?
A: 93 % of WT

Q: “HCV envelope glycoprotein E1, wild type (genotype 1a strain H77c) (from UniProt P27958) in263 (CLNID inserted after D263)” was tested. Which percent of parent did it give?
A: 93 % of WT

Q: Which percent of parent does the source give for “HCV envelope glycoprotein E1, wild type (genotype 1a strain H77c) (from UniProt P27958) in324 (FKQMM inserted after M324)” here?
A: 88 % of WT

Q: “HCV envelope glycoprotein E1, wild type (genotype 1a strain H77c) (from UniProt P27958) in341 (LFKHP inserted after P341)” was tested. Which percent of parent did it give?
A: 100 % of WT

Q: Which percent of parent does the source give for “HCV envelope glycoprotein E1, wild type (genotype 1a strain H77c) (from UniProt P27958) in343 (CLNKA inserted after A343)” here?
A: 66 % of WT

Q: How did the percent of parent turn out when “HCV envelope glycoprotein E2, wild type (genotype 1a strain H77c) (from UniProt P27958) in413 (MFKQL inserted after L413)” was run?
A: 72 % of WT

Q: With “HCV envelope glycoprotein E2, wild type (genotype 1a strain H77c) (from UniProt P27958) in422 (MFKHI inserted after I422)” as the substance, how does the percent of parent read?
A: 22 % of WT

Q: For “HCV envelope glycoprotein E2, wild type (genotype 1a strain H77c) (from UniProt P27958) in424 (CLNNS inserted after S424)”, which percent of parent is on record?
A: 25 % of WT

Q: With “HCV envelope glycoprotein E2, wild type (genotype 1a strain H77c) (from UniProt P27958) in531 (MFKHA inserted after A531)” as the substance, how does the percent of parent read?
A: 18 % of WT

Q: For “HCV envelope glycoprotein E2, wild type (genotype 1a strain H77c) (from UniProt P27958) in533 (CLNND inserted after D533)”, which percent of parent is on record?
A: 19 % of WT

Q: How did the percent of parent turn out when “HCV envelope glycoprotein E2, wild type (genotype 1a strain H77c) (from UniProt P27958) in540 (CLNIN inserted after N540)” was run?
A: 59 % of WT

Q: Which percent of parent does the source give for “HCV envelope glycoprotein E2, wild type (genotype 1a strain H77c) (from UniProt P27958) in549 (CLNNW inserted after W549)” here?
A: 45 % of WT

Q: With “HCV envelope glycoprotein E2, wild type (genotype 1a strain H77c) (from UniProt P27958) in573 (CLNRG inserted after G573)” as the substance, how does the percent of parent read?
A: 98 % of WT

Q: Which percent of parent does the source give for “HCV envelope glycoprotein E2, wild type (genotype 1a strain H77c) (from UniProt P27958) in587 (CLNIR inserted after R587)” here?
A: 83 % of WT

Q: “HCV envelope glycoprotein E2, wild type (genotype 1a strain H77c) (from UniProt P27958) in611 (LFKHY inserted after Y611)” was tested. Which percent of parent did it give?
A: 34 % of WT

Q: How did the percent of parent turn out when “HCV envelope glycoprotein E2, wild type (genotype 1a strain H77c) (from UniProt P27958) in614 (LFKHR inserted after R614)” was run?
A: 25 % of WT

Q: How did the percent of parent turn out when “HCV envelope glycoprotein E2, wild type (genotype 1a strain H77c) (from UniProt P27958) in620 (CLNTC inserted after C620)” was run?
A: 23 % of WT

Q: How did the percent of parent turn out when “HCV envelope glycoprotein E2, wild type (genotype 1a strain H77c) (from UniProt P27958) in630 (CLNIR inserted after R630)” was run?
A: 33 % of WT

Q: Which percent of parent does the source give for “HCV envelope glycoprotein E2, wild type (genotype 1a strain H77c) (from UniProt P27958) in682 (LFKHL inserted after L682)” here?
A: 83 % of WT

Q: With “HCV envelope glycoprotein E2, wild type (genotype 1a strain H77c) (from UniProt P27958) in692 (LFKHL inserted after L692)” as the substance, how does the percent of parent read?
A: 82 % of WT

Q: How did the percent of parent turn out when “HCV envelope glycoprotein E2, wild type (genotype 1a strain H77c) (from UniProt P27958) in726 (FKHLL inserted after L726)” was run?
A: 72 % of WT

Q: With “HCV envelope glycoprotein E2, wild type (genotype 1a strain H77c) (from UniProt P27958) in732 (CLNIC inserted after C732)” as the substance, how does the percent of parent read?
A: 77 % of WT

Q: With “HCV envelope glycoprotein E2, wild type (genotype 1a strain H77c) (from UniProt P27958) in734 (CLNTC inserted after C734)” as the substance, how does the percent of parent read?
A: 96 % of WT
